Results taken from patent US20150344570A1 (published 2015).

T1: FcγRIIb, extracellular domain with C-terminal His tag (human, UniProt P31994 43-217)
T1 construct: extracellular domain; also called FcgRIIb; 2b; not shown: His tag at the C terminus
T1 sequence (looked up): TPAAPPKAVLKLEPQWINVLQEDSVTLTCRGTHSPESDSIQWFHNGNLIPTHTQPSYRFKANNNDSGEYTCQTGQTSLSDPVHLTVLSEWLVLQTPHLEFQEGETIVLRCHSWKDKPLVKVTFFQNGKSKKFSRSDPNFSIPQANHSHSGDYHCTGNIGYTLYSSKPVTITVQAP

T2: FcγRIIa H (FcγRIIa, allotype with His at position 131), extracellular domain with C-terminal His tag (human, UniProt P12318 34-217)
T2 construct: extracellular domain; also called FcgRIIa H; 2aH; not shown: His tag at the C terminus
T2 sequence (looked up): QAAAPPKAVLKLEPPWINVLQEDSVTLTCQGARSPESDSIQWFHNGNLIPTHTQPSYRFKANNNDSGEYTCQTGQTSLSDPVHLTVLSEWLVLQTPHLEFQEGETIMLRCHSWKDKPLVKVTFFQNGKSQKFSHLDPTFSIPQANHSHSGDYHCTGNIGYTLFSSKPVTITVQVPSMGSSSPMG

T3: FcγRIIa H (human, UniProt P12318 34-217)
T3 construct: extracellular domain; also called FcγRIIa type H; 2aH; not shown: His tag at the C terminus
T3 sequence (looked up): T2 sequence (looked up)

T4: FcγRIIb (human, UniProt P31994 43-217)
T4 construct: extracellular domain; also called 2b; not shown: His tag at the C terminus
T4 sequence (looked up): T1 sequence (looked up)

B1: GpH7-A5/GpH7-B3 variant N325_20W/GpL16-k0 (antibody, human IgG1, kappa)
heavy 1: not shown
heavy 2: not shown
light: DIVMTQSPLSLPVTPGEPASISCQASESLVHSNRNTYLHWYLQKPGQSPQLLIYKVSNRFSGVPDRFSGSGSGTDFTLKISRVEAEDVGVYYCSQNTHVPPTFGQGTKVEIERTVAAPSVFIFPPSDEQLKSGTASVVCLLNNFYPREAKVQWKVDNALQSGNSQESVTEQDSKDSTYSLSSTLTLSKADYEKHKVYACEVTHQGLSSPVTKSFNRGEC
notes: Heterodimerized anti-glypican-3 IgG1; mutation in one H chain only; also called He Ab
B2: GpH7-A5/GpH7-B3 variant P331_16H/GpL16-k0 (antibody, human IgG1, kappa)
heavy 1: not shown
heavy 2: not shown
light: B1 light
notes: as for B1
B3: GpH7-A5/GpH7-B3 variant N325_15Y/GpL16-k0 (antibody, human IgG1, kappa)
heavy 1: not shown
heavy 2: not shown
light: B1 light
notes: as for B1
B4: GpH7-A5/GpH7-B3 variant P331_15Y/GpL16-k0 (antibody, human IgG1, kappa)
heavy 1: not shown
heavy 2: not shown
light: B1 light
notes: as for B1
B5: GpH7-A5/GpH7-B3 variant P331_10E/GpL16-k0 (antibody, human IgG1, kappa)
heavy 1: not shown
heavy 2: not shown
light: B1 light
notes: as for B1
B6: GpH7-A5/GpH7-B3 variant S324_05P/GpL16-k0 (antibody, human IgG1, kappa)
heavy 1: not shown
heavy 2: not shown
light: B1 light
notes: as for B1
B7: GpH7-A5/GpH7-B3 variant N325_16H/GpL16-k0 (antibody, human IgG1, kappa)
heavy 1: not shown
heavy 2: not shown
light: B1 light
notes: as for B1
B8: GpH7-A5/GpH7-B3 variant P331_03V/GpL16-k0 (antibody, human IgG1, kappa)
heavy 1: not shown
heavy 2: not shown
light: B1 light
notes: as for B1
B9: GpH7-A5/GpH7-B3 variant P331_07I/GpL16-k0 (antibody, human IgG1, kappa)
heavy 1: not shown
heavy 2: not shown
light: B1 light
notes: as for B1
B10: GpH7-A5/GpH7-B3 variant P331_20W/GpL16-k0 (antibody, human IgG1, kappa)
heavy 1: not shown
heavy 2: not shown
light: B1 light
notes: as for B1
B11: GpH7-A5/GpH7-B3 variant N325_14T/GpL16-k0 (antibody, human IgG1, kappa)
heavy 1: not shown
heavy 2: not shown
light: B1 light
notes: as for B1
B12: GpH7-A5/GpH7-B3 variant P331_04F/GpL16-k0 (antibody, human IgG1, kappa)
heavy 1: not shown
heavy 2: not shown
light: B1 light
notes: as for B1
B13: GpH7-A5/GpH7-B3 variant N325_13S/GpL16-k0 (antibody, human IgG1, kappa)
heavy 1: not shown
heavy 2: not shown
light: B1 light
notes: as for B1
B14: GpH7-A5/GpH7-B3 variant G236_02A/GpL16-k0 (antibody, human IgG1, kappa)
heavy 1: not shown
heavy 2: not shown
light: B1 light
notes: Heterodimerized IgG1; mutation in the GpH7-B3 chain only; also called He Ab
B15: GpH7-A5/GpH7-B3 variant G236_12R/GpL16-k0 (antibody, human IgG1, kappa)
heavy 1: not shown
heavy 2: not shown
light: B1 light
notes: as for B14
B16: GpH7-A5/GpH7-B3 variant L234_05P/GpL16-k0 (antibody, human IgG1, kappa)
heavy 1: not shown
heavy 2: not shown
light: B1 light
notes: as for B14
B17: GpH7-A5/GpH7-B3 variant G236_13S/GpL16-k0 (antibody, human IgG1, kappa)
heavy 1: not shown
heavy 2: not shown
light: B1 light
notes: as for B14

Biological target: T1, FcγRIIb, extracellular domain with …
Assay: SPR (Biacore), relative binding vs GpH7-A5/GpH7-B3/GpL16-k0

| He/Con_2b | Binder |
| --- | --- |
| 169 % of HeCon Ab (=100) | B1 |
| 116 % of HeCon Ab (=100) | B2 |
| 99.5 % of HeCon Ab (=100) | B3 |
| 114 % of HeCon Ab (=100) | B4 |
| 116 % of HeCon Ab (=100) | B5 |
| 94.7 % of HeCon Ab (=100) | B6 |
| 70.1 % of HeCon Ab (=100) | B7 |
| 119 % of HeCon Ab (=100) | B8 |
| 114 % of HeCon Ab (=100) | B9 |
| 111 % of HeCon Ab (=100) | B10 |
| 91.6 % of HeCon Ab (=100) | B11 |
| 110 % of HeCon Ab (=100) | B12 |
| 177 % of HeCon Ab (=100) | B13 |

Biological target: T2, FcγRIIa H (FcγRIIa, allotype with His …)
Assay: as above

| He/Con_2aH | Binder |
| --- | --- |
| 47.2 % of HeCon Ab (=100) | B1 |
| 84.5 % of HeCon Ab (=100) | B2 |
| 41.2 % of HeCon Ab (=100) | B3 |
| 86 % of HeCon Ab (=100) | B4 |
| 87.1 % of HeCon Ab (=100) | B5 |
| 55.5 % of HeCon Ab (=100) | B6 |
| 48 % of HeCon Ab (=100) | B7 |
| 82.5 % of HeCon Ab (=100) | B8 |
| 77.4 % of HeCon Ab (=100) | B9 |
| 82.8 % of HeCon Ab (=100) | B10 |
| 62.7 % of HeCon Ab (=100) | B11 |
| 84.7 % of HeCon Ab (=100) | B12 |
| 79.7 % of HeCon Ab (=100) | B13 |

Biological target: T2, FcγRIIa H (FcγRIIa, allotype with His …)
Assay: SPR (Biacore); He/Con_2aH divided by He/Con_2b (FcγRIIb)

| He_2aH/2b (IIaH/IIb) [ratio] | Binder |
| --- | --- |
| 0.28 | B1 |
| 0.73 | B2 |
| 0.41 | B3 |
| 0.75 | B4 |
| 0.75 | B5 |
| 0.59 | B6 |
| 0.68 | B7 |
| 0.7 | B8 |
| 0.68 | B9 |
| 0.75 | B10 |
| 0.68 | B11 |
| 0.77 | B12 |
| 0.45 | B13 |

Biological target: T3, FcγRIIa H
Assay: SPR (Biacore); He/Con_2aH divided by He/Con_2b (FcγRIIa H over FcγRIIb)

| He_2aH/2b (IIaH/IIb) [ratio] | Binder |
| --- | --- |
| 1.44 | B14 |
| 5.04 | B15 |
| 1.28 | B16 |
| 1.39 | B17 |

Biological target: T3, FcγRIIa H
Assay: SPR (Biacore), antibody captured, FcγR as analyte; binding relative to GpH7-A5/GpH7-B3/GpL16-k0 = 100
Description: (§1) The heterodimerized antibodies He Abs in which one of the H chains was introduced with an alteration were assayed for their binding activities to each activating FcγR and inhibitory FcγR according to the method described in Example 4. […] The activating FcγRs in FIGS. 26, 27, 28, and 29 are FcγRIa, FcγRIIa (R), FcγRIIa (H), and FcγRIIIa, respectively.
(§2) Analysis of interaction between objective antibody and the FcγR was carried out using Biacore T100 (GE Healthcare). HBS-EP+ (GE Healthcare) was used as the running buffer, and the measurement temperature was set to 25° C. Chips produced by immobilizing the antigen peptide by the amine coupling method to a Series S Sencor Chip CM5 (GE Healthcare), or alternatively, chips produced by allowing preliminarily biotinylated antigen peptides to interact with and immobilize onto a Series S Sensor Chip SA (certified) (GE Healthcare) were used. Antibodies of interest were captured onto an antigen peptide-immobilized chip, and allowed to interact to each FcγR diluted with running buffer. To regenerate and repeatedly use the chip, the antibodies captured on the chip were washed off by reacting 10 mM glycine-HCl, pH 1.5.

| He/Con_2aH | Binder |
| --- | --- |
| 139 % of control | B14 |
| 34.2 % of control | B15 |
| 93.5 % of control | B16 |
| 135 % of control | B17 |

Biological target: T4, FcγRIIb
Assay: as above
Description: as §1, §2

| He/Con_2b | Binder |
| --- | --- |
| 96.5 % of control | B14 |
| 6.8 % of control | B15 |
| 72.9 % of control | B16 |
| 96.7 % of control | B17 |
